Primed or numbered codes have the meaning given here. FITC′ = fluorescein isothiocyanate
B1: DREB2A(244-272)-WT (peptide, UniProt O82132 244-272, looked up)
chain: WPNDVDQSHLDSSDMFDVDELLRDLNGDD
notes: Expressed as GST-tagged peptide; 13C,15N-labelled for NMR, unlabelled for ITC; also called DREB2A-WT; source: E. coli BL21(DE3), purified (Glutathione Sepharose 4B, reversed phase Vydac C18)
B2: RCD1-RST(499-572) (domain or fragment, Arabidopsis thaliana, UniProt Q8RY59 499-572, looked up)
chain: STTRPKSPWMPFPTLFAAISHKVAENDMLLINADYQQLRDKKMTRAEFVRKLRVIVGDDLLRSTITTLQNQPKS
notes: also called AtRCD1-RST; αα-hub RCD1-RST; source: E. coli BL21(DE3), purified (Source 15S cation exchange, Superdex 75 SEC)

Legend:
[1] = molecular target: DREB2A 244-272 (Arabidopsis thaliana) (UniProt O82132); experiment: stopped-flow kinetics; conditions: cited from earlier work
RCD1-RST(499-572) [2] = molecular target: B2; experiment: ITC; 9-12 µM DREB2A(244-272) peptide in the cell, 92-100 µM RCD1-RST(499-572) in the syringe; 25 °C, 50 mM HEPES pH 7.4, 300 mM NaCl; one set of sites model; n = 3; conditions: both partners purified
RCD1-RST(499-572) [3] = molecular target: B2; experiment: stopped-flow fluorescence spectroscopy; 0.1 µM FITC-DREB2A peptide mixed with 1-6 µM RCD1-RST(499-572) (kon); preformed complex 1:0.1 µM displaced with 5-60 µM unlabelled DREB2A(244-272) (koff); Kd from the rate constants; 10 °C, 50 mM HEPES pH 7.4, 100 mM NaCl; conditions: both partners purified
RCD1-RST(499-572) [4] = molecular target: B2; experiment: stopped-flow fluorescence spectroscopy; association kinetics; 10 °C, 50 mM HEPES pH 7.4, 50 mM NaCl; conditions: both partners purified
RCD1-RST(499-572) [5] = molecular target: B2; experiment: stopped-flow fluorescence spectroscopy; association kinetics; 10 °C, 50 mM HEPES pH 7.4, 150 mM NaCl; conditions: both partners purified
RCD1-RST(499-572) [6] = molecular target: B2; experiment: stopped-flow fluorescence spectroscopy; association and displacement (dissociation) kinetics; 10 °C, 50 mM HEPES pH 7.4, 200 mM NaCl; conditions: both partners purified
RCD1-RST(499-572) [7] = molecular target: B2; experiment: stopped-flow fluorescence spectroscopy; association and displacement (dissociation) kinetics; 10 °C, 50 mM HEPES pH 7.4, 300 mM NaCl; conditions: both partners purified
RCD1-RST(499-572) [8] = molecular target: B2; experiment: stopped-flow fluorescence spectroscopy; association and displacement (dissociation) kinetics; 10 °C, 50 mM HEPES pH 7.4, 500 mM NaCl; conditions: both partners purified
RCD1-RST(499-572) [9] = molecular target: B2; experiment: stopped-flow fluorescence spectroscopy; association and displacement (dissociation) kinetics; 10 °C, 50 mM HEPES pH 7.4, 800 mM NaCl; conditions: both partners purified
RCD1-RST(499-572) [10] = molecular target: B2; experiment: stopped-flow fluorescence spectroscopy; 0.1 µM FITC-DREB2A peptide mixed with 1-6 µM RCD1-RST(499-572) (kon); preformed complex 1:0.1 µM displaced with 5-60 µM unlabelled DREB2A(244-272) (koff); Kd from the rate constants; 10 °C, 50 mM HEPES pH 7.4, 100 mM NaCl; conditions: both partners purified; remark: listed apart in the source
DREB2A(244-272)-WT = molecular target: B1; experiment: ITC; 9-12 µM DREB2A(244-272) peptide in the cell, 92-100 µM RCD1-RST(499-572) in the syringe; 25 °C, 50 mM HEPES pH 7.4, 300 mM NaCl; one set of sites model; n = 3; conditions: both partners purified

Kd (RCD1-RST(499-572) [2]) [nM] | kon (RCD1-RST(499-572) [5]) [M⁻¹ s⁻¹] | kon (RCD1-RST(499-572) [6]) [M⁻¹ s⁻¹] | kon (RCD1-RST(499-572) [7]) [M⁻¹ s⁻¹] | kon (RCD1-RST(499-572) [8]) [M⁻¹ s⁻¹] | koff (RCD1-RST(499-572) [9]) [s⁻¹] | kon (RCD1-RST(499-572) [9]) [M⁻¹ s⁻¹] | Molecule | Kd (RCD1-RST(499-572) [3]) [nM] | koff (RCD1-RST(499-572) [3]) [s⁻¹] | kon (RCD1-RST(499-572) [3]) [M⁻¹ s⁻¹] | kon (RCD1-RST(499-572) [10]) [M⁻¹ s⁻¹] | further results
 |  |  |  |  |  |  | RCD1 499-572 (from UniProt Q8RY59) |  |  |  |  | Kd [1]: 0.8 nM
84 |  |  |  |  |  |  | B1 |  |  |  |  | 
 |  |  |  |  |  |  | {FITC′}-NDVDQSHLDSSDMFDVDELLADLNGDD-NH2 (peptide, UniProt O82132 246-272, looked up, also: acetylation stated, site not given here, also called DREB2A-R266A; DREB2A(244-272) variant R266A; source: synthetic peptide, bought: TAG Copenhagen A/S (>98% purity)) [FITC-DREB2A(246-272) R266A] | 1.5 | 0.383 | 2.46e+08 |  | 
 | 1.75e+08 | 1.2e+08 | 5.59e+07 | 2.1e+07 | 5.29 | 1.06e+07 | {FITC′}-NDVDQSHLDSSDMFDVDELLGDLNGDD-NH2 (peptide, UniProt O82132 246-272, looked up, also: acetylation stated, site not given here, also called fluorescently labeled DREB2A(244-272)-R266G; DREB2A-R266G; source: synthetic peptide, bought: TAG Copenhagen A/S (>98% purity)) [FITC-DREB2A(246-272) R266G] | 3 | 0.7 | 2.3e+08 | 2.06e+08 | kon (RCD1-RST(499-572) [4]): 4.13e+08 M⁻¹ s⁻¹
 |  |  |  |  |  |  | B2 |  |  |  |  | dH (DREB2A(244-272)-WT): -16.3 kcal/mol; stoichiometry N (DREB2A(244-272)-WT): 0.84
369 |  |  |  |  |  |  | WPNDVDQSHLDSSDMFDVDELLGDLNGDD (peptide, UniProt O82132 244-272, looked up, Expressed as GST-tagged peptide; 13C,15N-labelled for NMR, unlabelled for ITC; also called DREB2A-R266G; source: E. coli BL21(DE3), purified (Glutathione Sepharose 4B, reversed phase Vydac C18)) [DREB2A(244-272)-R266G] |  |  |  |  | 
 | 1.49e+08 | 1.42e+08 | 8.1e+07 | 4.5e+07 | 0.223 | 2.2e+07 | {FITC′}-NDVDQSHLDSSDMFDVDELLRLLNGDD-NH2 (peptide, UniProt O82132 246-272, looked up, also: acetylation stated, site not given here, also called fluorescently labeled DREB2A(244-272)-D267L; DREB2A-D267L; source: synthetic peptide, bought: TAG Copenhagen A/S (>98% purity)) [FITC-DREB2A(246-272) D267L] | 0.13 | 0.03 | 2.35e+08 | 1.78e+08 | 
 |  |  |  |  |  |  | {FITC′}-NDVDQSHLDSSDMFDVDELLRALNGDD-NH2 (peptide, UniProt O82132 246-272, looked up, also: acetylation stated, site not given here, also called DREB2A-D267A; DREB2A(244-272) variant D267A; source: synthetic peptide, bought: TAG Copenhagen A/S (>98% purity)) [FITC-DREB2A(246-272) D267A] | 0.32 | 0.07 | 2.22e+08 |  | 
 | 1.18e+08 | 4.5e+07 | 3.6e+07 | 2.3e+07 | 1.78 | 8e+06 | {FITC′}-NDVDQSHLDSSDMFDVDELLRDLNGDD-NH2 (peptide, UniProt O82132 246-272, looked up, also: acetylation stated, site not given here, also called fluorescently labeled DREB2A(244-272)-WT; source: synthetic peptide, bought: TAG Copenhagen A/S (>98% purity)) [FITC-DREB2A(246-272) WT] |  |  |  | 2.45e+08 | kon (RCD1-RST(499-572) [4]): 3.35e+08 M⁻¹ s⁻¹; koff (RCD1-RST(499-572) [6]): 0.4 s⁻¹; koff (RCD1-RST(499-572) [7]): 0.53 s⁻¹; koff (RCD1-RST(499-572) [8]): 0.94 s⁻¹; koff (RCD1-RST(499-572) [10]): 0.18 s⁻¹
66 |  |  |  |  |  |  | WPNDVDQSHLDSSDMFDVDELLRLLNGDD (peptide, UniProt O82132 244-272, looked up, Expressed as GST-tagged peptide; 13C,15N-labelled for NMR, unlabelled for ITC; also called DREB2A-D267L; source: E. coli BL21(DE3), purified (Glutathione Sepharose 4B, reversed phase Vydac C18)) [DREB2A(244-272)-D267L] |  |  |  |  | 
